Measured values taken from patent US20160243215A1.

What was measured:
[1] = molecular target: 405C gp140 trimer (405C gp140-foldon, gp140Fd) (HIV-1 clade C, isolate 405C); assay: SPR; 17b IgG captured on protein A, trimer at 1000 nM with against without bound CD4
[2] = molecular target: 459C gp140 trimer (459C gp140-foldon, gp140Fd) (HIV-1 clade C, isolate 459C); assay: as above
[3] = molecular target: 939C gp140 trimer (939C gp140-foldon, gp140Fd) (HIV-1 clade C, isolate 939C); assay: as above
[4] = molecular target: 405C gp140 trimer (405C gp140-foldon, gp140Fd) (HIV-1 clade C, isolate 405C); assay: SPR (Example 8); IgG captured on protein A, trimer flowed over
[5] = molecular target: 405C gp140 trimer (405C gp140-foldon, gp140Fd) (HIV-1 clade C, isolate 405C); assay: SPR; IgG captured on protein A, trimer flowed over
[6] = molecular target: 459C full-length gp160 Env on SHIV (HIV-1 clade C, isolate 459C); assay: cell-based or functional assay
[7] = molecular target: 405C full-length gp160 Env on SHIV (HIV-1 clade C, isolate 405C); assay: cell-based or functional assay
[8] = molecular target: 405C gp140 trimer (405C gp140-foldon, gp140Fd) (HIV-1 clade C, isolate 405C); assay: SPR; IgG captured on protein A, Env flowed over; 1:1 model
[9] = molecular target: 459C gp140 trimer (459C gp140-foldon, gp140Fd) (HIV-1 clade C, isolate 459C); assay: as above
[10] = molecular target: 939C gp140 trimer (939C gp140-foldon, gp140Fd) (HIV-1 clade C, isolate 939C); assay: as above
[11] = molecular target: 405C gp120 monomer (HIV-1 clade C, isolate 405C); assay: as above
[12] = molecular target: 939C gp120 monomer (HIV-1 clade C, isolate 939C); assay: as above
[13] = molecular target: 459C gp120 monomer (HIV-1 clade C, isolate 459C); assay: as above
[14] = molecular target: 405C gp140 trimer (405C gp140-foldon, gp140Fd) (HIV-1 clade C, isolate 405C); assay: SPR; CD4 coupled to CM5 chip, Env flowed over; 1:1 model; 405C gp140 trimer as analyte
[15] = molecular target: 405C gp140 trimer (405C gp140-foldon, gp140Fd) (HIV-1 clade C, isolate 405C); assay: SPR; CD4 coupled to CM5 chip, Env flowed over; 1:1 model
[16] = molecular target: 459C gp140 trimer (459C gp140-foldon, gp140Fd) (HIV-1 clade C, isolate 459C); assay: as above
[17] = molecular target: 939C gp140 trimer (939C gp140-foldon, gp140Fd) (HIV-1 clade C, isolate 939C); assay: as above
[18] = molecular target: 939C gp120 monomer (HIV-1 clade C, isolate 939C); assay: as above
[19] = molecular target: 459C gp120 monomer (HIV-1 clade C, isolate 459C); assay: as above
[20] = molecular target: 405C gp120 monomer (HIV-1 clade C, isolate 405C); assay: SPR; CD4 coupled to CM5 chip, Env flowed over; 1:1 model; 405C gp120 monomer as analyte
[21] = molecular target: 405C gp120 monomer (HIV-1 clade C, isolate 405C); assay: SPR; IgG captured on protein A, Env flowed over; 1:1 model (monomer rates are rough estimates)
[22] = molecular target: 459C gp120 monomer (HIV-1 clade C, isolate 459C); assay: as above
[23] = molecular target: 405C gp140 trimer (405C gp140-foldon, gp140Fd) (HIV-1 clade C, isolate 405C); assay: SPR; 4,500 RU IgG captured on protein A, Env flowed over
[24] = molecular target: 939C gp140 trimer (939C gp140-foldon, gp140Fd) (HIV-1 clade C, isolate 939C); assay: as above
[25] = molecular target: 405C gp140 trimer (405C gp140-foldon, gp140Fd) (HIV-1 clade C, isolate 405C); assay: SPR; 3,500 RU IgG captured on protein A, Env flowed over; 1:1 model
[26] = molecular target: 459C gp140 trimer (459C gp140-foldon, gp140Fd) (HIV-1 clade C, isolate 459C); assay: as above
[27] = molecular target: 939C gp140 trimer (939C gp140-foldon, gp140Fd) (HIV-1 clade C, isolate 939C); assay: as above

## 17b IgG (antibody)
[1]
  fold increase in magnitude of binding when the trimer is bound to CD4: 4 fold
[2]
  fold increase in magnitude of binding when the trimer is bound to CD4: 4 fold
[3]
  fold increase in magnitude of binding when the trimer is bound to CD4: 4 fold

## 3BNC117 IgG (antibody)
[4]
  fold lower magnitude of binding than Env 459C and 939C trimers: 5 fold
[5]
  fold lower magnitude of binding than 459C and 939C trimers: 5 fold
[6]
  IC50 Titers (TZM.bl cells, ug/ml): 5.97 µg/mL
[7]
  IC50 Titers (TZM.bl cells, ug/ml): 4.94 µg/mL
[8]
  Kd: 78.3 nM
  koff: 0.000322 s⁻¹
  kon: 4110 M⁻¹ s⁻¹
[9]
  Kd: 1.24 nM
  koff: 1.04e-05 s⁻¹
  kon: 8500 M⁻¹ s⁻¹
[10]
  Kd: 27.1 nM
  koff: 0.000224 s⁻¹
  kon: 8330 M⁻¹ s⁻¹
[11]
  Kd: 85.8 nM
  koff: 0.00042 s⁻¹
  kon: 4900 M⁻¹ s⁻¹
[12]
  Kd: 172 nM
  koff: 0.000961 s⁻¹
  kon: 6450 M⁻¹ s⁻¹
[13]
  Kd: 95.1 nM
  koff: 0.0005 s⁻¹
  kon: 6130 M⁻¹ s⁻¹

## Soluble two-domain CD4 (from UniProt P01730 26-208) (receptor)
[14]
  Kd: 12.3 nM
[15]
  koff: 0.000196 s⁻¹
  kon: 15400 M⁻¹ s⁻¹
[16]
  Kd: 4.17 nM
  koff: 9.89e-05 s⁻¹
  kon: 23700 M⁻¹ s⁻¹
[17]
  Kd: 12.5 nM
  koff: 0.000206 s⁻¹
  kon: 16500 M⁻¹ s⁻¹
[18]
  Kd: 15.9 nM
  koff: 0.00031 s⁻¹
  kon: 19500 M⁻¹ s⁻¹
[19]
  Kd: 26.9 nM
  koff: 0.00049 s⁻¹
  kon: 18200 M⁻¹ s⁻¹
[20]
  koff: 0.000327 s⁻¹
  kon: 5560 M⁻¹ s⁻¹

## b12 IgG (antibody)
[6]
  IC50 Titers (TZM.bl cells, ug/ml): > 50 µg/mL
[7]
  IC50 Titers (TZM.bl cells, ug/ml): > 50 µg/mL

## sCD4 (soluble CD4) (from UniProt P01730 26-208) (receptor)
[6]
  IC50 Titers (TZM.bl cells, ug/ml): 48.7 µg/mL
[7]
  IC50 Titers (TZM.bl cells, ug/ml): > 50 µg/mL

## 4E10 IgG (antibody)
[6]
  IC50 Titers (TZM.bl cells, ug/ml): > 50 µg/mL
[7]
  IC50 Titers (TZM.bl cells, ug/ml): 18.2 µg/mL

## PGT126 IgG (antibody)
[8]
  Kd: 9.83 nM
  koff: 0.000282 s⁻¹
  kon: 28700 M⁻¹ s⁻¹
[9]
  Kd: 8.3 nM
  koff: 0.000243 s⁻¹
  kon: 29500 M⁻¹ s⁻¹
[10]
  Kd: 6.63 nM
  koff: 0.000232 s⁻¹
  kon: 35000 M⁻¹ s⁻¹
[21]
  Kd: 38.3 nM
  koff: 0.0012 s⁻¹
  kon: 31400 M⁻¹ s⁻¹
[22]
  Kd: 41.3 nM
  koff: 0.000592 s⁻¹
  kon: 14800 M⁻¹ s⁻¹

## PGT121 IgG (antibody)
[8]
  Kd: 10.6 nM
  koff: 0.000104 s⁻¹
  kon: 9780 M⁻¹ s⁻¹
[9]
  Kd: 5.56 nM
  koff: 8.73e-05 s⁻¹
  kon: 15700 M⁻¹ s⁻¹
[10]
  Kd: 25.7 nM
  koff: 0.00043 s⁻¹
  kon: 16700 M⁻¹ s⁻¹
[21]
  Kd: 64.2 nM
  koff: 0.000492 s⁻¹
  kon: 7670 M⁻¹ s⁻¹
[22]
  Kd: 123 nM
  koff: 0.000824 s⁻¹
  kon: 6720 M⁻¹ s⁻¹

## VRC01 IgG (antibody)
[4]
  fold lower magnitude of binding than Env 459C and 939C trimers: 5 fold
[5]
  fold lower magnitude of binding than 459C and 939C trimers: 5 fold
[6]
  IC50 Titers (TZM.bl cells, ug/ml): 11.9 µg/mL
[7]
  IC50 Titers (TZM.bl cells, ug/ml): 13.3 µg/mL
[8]
  Kd: 7.42 nM
  koff: 4.52e-05 s⁻¹
  kon: 6090 M⁻¹ s⁻¹
[9]
  Kd: 7.5 nM
  koff: 4.75e-05 s⁻¹
  kon: 6990 M⁻¹ s⁻¹
[10]
  Kd: 3.52 nM
  koff: 1.55e-05 s⁻¹
  kon: 4400 M⁻¹ s⁻¹
[11]
  Kd: 35.3 nM
  koff: 0.000278 s⁻¹
  kon: 7870 M⁻¹ s⁻¹
[12]
  Kd: 57.3 nM
  koff: 0.000249 s⁻¹
  kon: 4350 M⁻¹ s⁻¹
[13]
  Kd: 328 nM
  koff: 0.00109 s⁻¹
  kon: 3320 M⁻¹ s⁻¹

## PG16 IgG (antibody)
[23]
  Kd: 1450 nM
  koff: 0.00151 s⁻¹
[24]
  Kd: 1260 nM
  koff: 0.00286 s⁻¹
  kon: 2410 M⁻¹ s⁻¹
[6]
  IC50 Titers (TZM.bl cells, ug/ml): 6.7 µg/mL
[7]
  IC50 Titers (TZM.bl cells, ug/ml): 2.05 µg/mL

## 2G12 IgG (antibody)
[6]
  IC50 Titers (TZM.bl cells, ug/ml): > 50 µg/mL
[7]
  IC50 Titers (TZM.bl cells, ug/ml): > 50 µg/mL

## PGT128 IgG (antibody)
[6]
  IC50 Titers (TZM.bl cells, ug/ml): 0.65 µg/mL
[7]
  IC50 Titers (TZM.bl cells, ug/ml): 45.9 µg/mL

## PG9 IgG (antibody)
[6]
  IC50 Titers (TZM.bl cells, ug/ml): > 50 µg/mL
[7]
  IC50 Titers (TZM.bl cells, ug/ml): 17.4 µg/mL
[25]
  Kd: 335 nM
  koff: 0.000662 s⁻¹
  kon: 1970 M⁻¹ s⁻¹
[26]
  Kd: 448 nM
  koff: 0.0032 s⁻¹
  kon: 7150 M⁻¹ s⁻¹
[27]
  Kd: 157 nM
  koff: 0.00126 s⁻¹
  kon: 8010 M⁻¹ s⁻¹

## 2F5 IgG (antibody)
[6]
  IC50 Titers (TZM.bl cells, ug/ml): > 50 µg/mL
[7]
  IC50 Titers (TZM.bl cells, ug/ml): > 50 µg/mL
